This is an account of results in US20250313634A1 (WUXI BIOLOGICS SHANGHAI, published 2025).

One assay addresses T1, murine PD-L1 (mouse, UniProt Q9EP73 19-238, limits assumed).
T1 construct: also called mouse PD-L1 (coated on ELISA plates)
Put plainly: ELISA, murine PD-L1 coated on the plate, goat anti-human IgG Fc-HRP; antibody concentration not shown. Here is the method:
3.7 Cross-species binding assay: the cross-reactivity of the Ab to cynomolgus and murine PD-L1 was measured by ELISA. Human, cyno and mouse PD-L1 were coated on ELISA plates, respectively. After blocking, fully human antibodies were added into the plate and incubated at room temperature for at least 2 hours. The binding of the antibodies to the coated antigens was detected by using goat anti-human IgG Fc-HRP. The color reaction was developed using TMB substrate and stopped by 2M HCl. The ELISA plates were analyzed at 450 nm using a Molecular Device M5e microplate reader.

Assay [1] concerns the target T2, hPD-L1_ECD.His point mutant Q77A (human, UniProt Q9NZQ7 19-238).
T2 construct: extracellular domain
The assay can be described thus: capture ELISA on coated 1.14.4; relative to silent alanine substitutions. Here is the method: (§1) After interacting with the supernatant that contains quantified PD-L1 mutant or human/mouse PD-L1_ECD.His protein (Sino Biological, China), HRP conjugated anti-His antibody (1:5000; Rockland Immunochemicals, Pottstown, PA) was added as detection antibody. Absorbance was normalized according to the average of control mutants. After setting an additional cutoff to the binding fold change (<0.55), the final determined epitope residues were identified.
(§2) The observed binding reductions most probably resulted from the instability or even collapse of hPD-L1 structure after alanine substitutions. After setting an additional cutoff to the binding fold change (<0.55), the final determined epitope residues were listed in Table 3.
Background: In an ELISA, binding on a coated surface is turned into a signal by an enzyme label.

Assay [2] deals with T3, hPD-L1_ECD.His point mutant R186A (human, UniProt Q9NZQ7 19-238).
T3 construct: extracellular domain
T3 sequence (Q9NZQ7 19-238 R186A): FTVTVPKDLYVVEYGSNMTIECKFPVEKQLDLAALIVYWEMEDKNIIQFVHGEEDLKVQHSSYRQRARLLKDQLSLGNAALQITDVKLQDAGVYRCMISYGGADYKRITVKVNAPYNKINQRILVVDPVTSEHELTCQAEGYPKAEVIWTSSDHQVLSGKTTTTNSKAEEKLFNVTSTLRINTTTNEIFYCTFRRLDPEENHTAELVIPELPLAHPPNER
The description is as above. Here is the method:
as §1, §2

Assay [3] has as its target T4, hPD-L1_ECD.His point mutant P43A (human, UniProt Q9NZQ7 19-238).
T4 construct: extracellular domain
The description is as above. Here is the method: as §1, §2

The target of assay [4] is T5, hPD-L1_ECD.His point mutant S79A (human, UniProt Q9NZQ7 19-238).
T5 construct: extracellular domain
T5 sequence (Q9NZQ7 19-238 S79A): as the sequence (Q9NZQ7 19-238 R186A) above, with S61A, A168R counted along it
The description is as above. Here is the method: as §1, §2

Assay [5] concerns the target T6, hPD-L1_ECD.His point mutant D26A (human, UniProt Q9NZQ7 19-238).
T6 construct: extracellular domain
The assay is described as above. Here is the method:
as §1, §2

The target of assay [6] is T7, hPD-L1_ECD.His point mutant V225A (human, UniProt Q9NZQ7 19-238).
T7 construct: extracellular domain
T7 sequence (Q9NZQ7 19-238 V225A): as the sequence (Q9NZQ7 19-238 R186A) above, with A168R, V207A counted along it
Described as above. Here is the method:
as §1, §2

Assay [7] concerns the target T8, hPD-L1_ECD.His point mutant L48A (human, UniProt Q9NZQ7 19-238).
T8 construct: extracellular domain
Described as above. Here is the method: as §1, §2

In assay [8] the target is T9, hPD-L1_ECD.His point mutant V143A (human, UniProt Q9NZQ7 19-238).
T9 construct: extracellular domain
T9 sequence (Q9NZQ7 19-238 V143A): as the sequence (Q9NZQ7 19-238 R186A) above, with V125A, A168R counted along it
Described as above. Here is the method:
as §1, §2

The target of assay [9] is T10, hPD-L1_ECD.His point mutant E237A (human, UniProt Q9NZQ7 19-238).
T10 construct: extracellular domain
T10 sequence (Q9NZQ7 19-238 E237A): as the sequence (Q9NZQ7 19-238 R186A) above, with A168R, E219A counted along it
The assay is described as above. Here is the method:
as §1, §2

Assay [10] deals with T11, hPD-L1_ECD.His point mutant Q100A (human, UniProt Q9NZQ7 19-238).
T11 construct: extracellular domain
T11 sequence (Q9NZQ7 19-238 Q100A): as the sequence (Q9NZQ7 19-238 R186A) above, with Q82A, A168R counted along it
The assay is described as above. Here is the method:
as §1, §2

The target in assay [11] is T12, hPD-L1_ECD.His point mutant E58A (human, UniProt Q9NZQ7 19-238).
T12 construct: extracellular domain
T12 sequence (Q9NZQ7 19-238 E58A): as the sequence (Q9NZQ7 19-238 R186A) above, with E40A, A168R counted along it
The assay is described as above. Here is the method:
as §1, §2

Assay [12] deals with T13, hPD-L1_ECD.His point mutant K185A (human, UniProt Q9NZQ7 19-238).
T13 construct: extracellular domain
T13 sequence (Q9NZQ7 19-238 K185A): as the sequence (Q9NZQ7 19-238 R186A) above, with K167A, A168R counted along it
Described as above. Here is the method:
as §1, §2

Assay [13] deals with T14, hPD-L1_ECD.His point mutant Q47A (human, UniProt Q9NZQ7 19-238).
T14 construct: extracellular domain
T14 sequence (Q9NZQ7 19-238 Q47A): as the sequence (Q9NZQ7 19-238 R186A) above, with Q29A, A168R counted along it
The description is as above. Here is the method:
as §1, §2

Assay [14] has as its target T15, hPD-L1_ECD.His point mutant D49A (human, UniProt Q9NZQ7 19-238).
T15 construct: extracellular domain
The description is as above. Here is the method: as §1, §2

Assay [15] deals with T16, hPD-L1_ECD.His point mutant Q66A (human, UniProt Q9NZQ7 19-238).
T16 construct: extracellular domain
T16 sequence (Q9NZQ7 19-238 Q66A): as the sequence (Q9NZQ7 19-238 R186A) above, with Q48A, A168R counted along it
The assay is described as above. Here is the method:
as §1, §2

Assay [16] has as its target T17, hPD-L1_ECD.His point mutant P216A (human, UniProt Q9NZQ7 19-238).
T17 construct: extracellular domain
Described as above. Here is the method: as §1, §2

In assay [17] the target is T18, hPD-L1_ECD.His point mutant T196A (human, UniProt Q9NZQ7 19-238).
T18 construct: extracellular domain
T18 sequence (Q9NZQ7 19-238 T196A): as the sequence (Q9NZQ7 19-238 R186A) above, with A168R, T178A counted along it
The assay is described as above. Here is the method:
as §1, §2

Assay [18] deals with T19, hPD-L1_ECD.His point mutant A98G (human, UniProt Q9NZQ7 19-238).
T19 construct: extracellular domain
T19 sequence (Q9NZQ7 19-238 A98G): as the sequence (Q9NZQ7 19-238 R186A) above, with A80G, A168R counted along it
Described as above. Here is the method:
as §1, §2

The target of assay [19] is T20, hPD-L1_ECD.His point mutant E45A (human, UniProt Q9NZQ7 19-238).
T20 construct: extracellular domain
T20 sequence (Q9NZQ7 19-238 E45A): as the sequence (Q9NZQ7 19-238 R186A) above, with E27A, A168R counted along it
Described as above. Here is the method: as §1, §2

Assay [20] concerns the target T21, hPD-L1_ECD.His point mutant T22A (human, UniProt Q9NZQ7 19-238).
T21 construct: extracellular domain
The description is as above. Here is the method:
as §1, §2

In assay [21] the target is T22, hPD-L1_ECD.His point mutant E72A (human, UniProt Q9NZQ7 19-238).
T22 construct: extracellular domain
T22 sequence (Q9NZQ7 19-238 E72A): as the sequence (Q9NZQ7 19-238 R186A) above, with E54A, A168R counted along it
Described as above. Here is the method:
as §1, §2

Assay [22] addresses T23, hPD-L1_ECD.His point mutant N96A (human, UniProt Q9NZQ7 19-238).
T23 construct: extracellular domain
Described as above. Here is the method: as §1, §2

For assay [23], the target named is T24, hPD-L1_ECD.His point mutant T179A (human, UniProt Q9NZQ7 19-238).
T24 construct: extracellular domain
T24 sequence (Q9NZQ7 19-238 T179A): as the sequence (Q9NZQ7 19-238 R186A) above, with T161A, A168R counted along it
The description is as above. Here is the method:
as §1, §2

T23 sequence (Q9NZQ7 19-238 N96A): as the sequence (Q9NZQ7 19-238 R186A) above, with N78A, A168R counted along it
T4 sequence (Q9NZQ7 19-238 P43A): as the sequence (Q9NZQ7 19-238 R186A) above, with P25A, A168R counted along it
T2 sequence (Q9NZQ7 19-238 Q77A): as the sequence (Q9NZQ7 19-238 R186A) above, with Q59A, A168R counted along it
T15 sequence (Q9NZQ7 19-238 D49A): as the sequence (Q9NZQ7 19-238 R186A) above, with D31A, A168R counted along it
T8 sequence (Q9NZQ7 19-238 L48A): as the sequence (Q9NZQ7 19-238 R186A) above, with L30A, A168R counted along it
T1 sequence (Q9EP73 19-238 limits assumed): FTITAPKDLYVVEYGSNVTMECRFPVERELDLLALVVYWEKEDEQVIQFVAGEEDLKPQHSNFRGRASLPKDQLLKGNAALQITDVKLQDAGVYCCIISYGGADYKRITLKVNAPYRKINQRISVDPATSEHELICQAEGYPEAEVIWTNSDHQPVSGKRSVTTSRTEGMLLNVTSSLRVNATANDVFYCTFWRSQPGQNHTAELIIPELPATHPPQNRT
T17 sequence (Q9NZQ7 19-238 P216A): as the sequence (Q9NZQ7 19-238 R186A) above, with A168R, P198A counted along it
T6 sequence (Q9NZQ7 19-238 D26A): as the sequence (Q9NZQ7 19-238 R186A) above, with D8A, A168R counted along it
T21 sequence (Q9NZQ7 19-238 T22A): as the sequence (Q9NZQ7 19-238 R186A) above, with T4A, A168R counted along it

B1: 1.14.4 (antibody, V domains shown)
VH: EVQLLESGGGLVQPGGSLRLSCAASGFTFSSYAMSWVRQAPGKGLEWVSGISGSGGFTYYADSVKGRFTISRDNSKNTLYLQMNSLRAEDTAVYYCAKPPRGYNYGPFDYWGQGTLVTVSS
VL: SYVLTQPPSVSVAPGQTARITCGGNNIGSKSVHWYQQKPGQAPVLVVYDDSDRPSGIPERFSGSNSGNTATLTISRVEAGDEADYYCQVWDSSSDHVVFGGGTKLTVL
notes: Fully human monoclonal antibody with a human constant region of IgG4 isotype
In the case of B1, the binding result in the assay with murine PD-L1 is reported as “no binding”. For the same molecule, the fold change in [1] was 1.01 fold; in assay [2] it was 0.805 fold; in [3] it was 0.834 fold; in assay [4], 0.962 fold; in assay [5] it was 0.963 fold; in assay [6], 0.749 fold. The fold change was found to be 0.77 fold in assay [7]; 1.02 fold in assay [8]; 0.956 fold in assay [9]; 1.01 fold in [10]; 0.399 fold in assay [11]; 0.853 fold in [12]. In addition, the fold change in assay [13] worked out at 1.05 fold; in [14] it was 0.603 fold; in assay [15], 0.979 fold; in [16] it was 0.563 fold; in assay [17] it was 0.898 fold; in assay [18], 1.01 fold. Besides, the fold change in [19] stood at 0.942 fold; in assay [20] it was 0.875 fold; in assay [21], 0.748 fold; in assay [22], 0.924 fold; in [23], 0.893 fold.
